According to paper PMC4066811:

Experiments:
[1] = biological target: GST-syntaxin 3B (cytoplasmic domain without the transmembrane domain, residues 2-264), wild type (mouse); assay: pull-down
[2] = biological target: GST-syntaxin 3B T14E (phosphomimetic mutant, without the transmembrane domain) (mouse); assay: pull-down

Q: Which results are given for “His6-SNAP-25b (recombinant) (from UniProt P60879-1 1-206) (natural protein)”?
A: amount of bound SNAP-25, normalized to wild type [1]: 100%; amount of bound SNAP-25, normalized to wild type [2]: 180%
